Measurements: the supplement of paper PMC7877785
± gives the uncertainty stated by the source.

Assay: self-splicing fitness, log relative to wild type (ln ratio); higher = more splicing; Tetrahymena group I intron in knt gene, E. coli kanamycin selection, DiMSum; sequences stand for … in CUCUCU…GGAGGGAAAAGUUAUCAGGCAUGCACCUGGUAGCUAGUCUUUAAACCAAUAGAUUGCAUCGGUUUAAAAGGCAAGACCGUCAAAUUGCGGGAAAGGGGUCAACAGCCGUUCAGUACCAAGUCUCAGGGGAAACUUUGAGAUGGCCUUGCAAAGGGUAUGGUAAUAAGCUGACGGACAUGGUCCUAACCACGCAGCCAAGUCCUAAGUCAACAGAUCUUCUGUUGAUAUGGAUGCAGUUCACAGACUAAAUGUCGGUCGGGGAAGAUGUAUUCUUCUCAUAAGAUAUAGUCGGACCUCUCCUUAAUGGGAGCUAGCGGAUGAAGUGAUGCAACACUGGAGCCGCUGGGAACUAAUUUGUAUGCGAAAGUAUAUUGAUUAGUUUUGGAGUACUCGUGGUCG
In short: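 Library with all eight P1ex-region intron nucleotides randomised, intron inside the knt kanamycin-resistance gene on pET-22b(+), in E. coli BL21(DE3). Cells grew overnight at 37°C or 30°C on LB agar with or without 25 μg/mL kanamycin (plus 100 μg/mL carbenicillin, 50 μM IPTG, 0.2% rhamnose), in six replicate transformations. Pooled colonies were amplicon-sequenced on Illumina HiSeq 2500. DiMSum fitness is the error-weighted combination of wild-type-normalised replicate fold changes, kanamycin versus none.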

Row | Sequence | self-splicing fitness (ln) (30 °C) | self-splicing fitness (ln) (37 °C)
1 | CCACAGCAAUAUUACGGGAU | -4.56 ± 0.26 | -2.33 ± 0.15
2 | GCACAGCAAUAUUACGUCGU | -0.704 ± 0.083 | 0.241 ± 0.091
3 | ACUAAGCAAUAUUACGGGCA | -1.27 ± 0.089 | -0.405 ± 0.1
4 | AGCAAGCAAUAUUACGGGUU | -1.67 ± 0.1 | -2.17 ± 0.14
5 | GAGAAGCAAUAUUACGCGGC | -3.03 ± 0.23 | -0.0876 ± 0.18
6 | GGAAAGCAAUAUUACGGCGG | -2.47 ± 0.19 | -1.45 ± 0.2
7 | CUCAAGCAAUAUUACGGCCG | -1.2 ± 0.13 | -1.69 ± 0.24
8 | CCUGAGCAAUAUUACGUUGG | -4.56 ± 0.29 | -2.16 ± 0.16
9 | CGUGAGCAAUAUUACGAGAU | -3.4 ± 0.26 | -1.57 ± 0.24
10 | AGUUAGCAAUAUUACGACUG | -0.637 ± 0.13 | -0.00615 ± 0.18
11 | UGUGAGCAAUAUUACGGCAA | -1.83 ± 0.23 | -1.27 ± 0.25
12 | UAUAAGCAAUAUUACGUCUA | 0.561 ± 0.077 | 0.494 ± 0.1
13 | GCUAAGCAAUAUUACGAUUC | -0.0116 ± 0.081 | -0.128 ± 0.092
14 | CACCAGCAAUAUUACGAUCA | -2.75 ± 0.15 | -1.43 ± 0.16
15 | AUAGAGCAAUAUUACGGGGG | -3.2 ± 0.27 | -2.72 ± 0.4
16 | UGUAAGCAAUAUUACGUUUU | -4.1 ± 0.18 | -1.14 ± 0.096
17 | CUUAAGCAAUAUUACGGAGA | -2.45 ± 0.24 | -2.31 ± 0.29
18 | CUAAAGCAAUAUUACGCUUG | -2.8 ± 0.15 | -1.58 ± 0.17
19 | UUGUAGCAAUAUUACGUUAU | -2.7 ± 0.41 | -2.1 ± 0.25
20 | CGGGAGCAAUAUUACGUAAC | -1.35 ± 0.27 | 

Row | Sequence | self-splicing fitness (ln) (30 °C) | self-splicing fitness (ln) (37 °C)
21 | GAAUAGCAAUAUUACGCACG | -1.22 ± 0.15 | -0.764 ± 0.2
22 | CUACAGCAAUAUUACGAAGA | -3.21 ± 0.45 | -2.56 ± 0.41
23 | ACCAAGCAAUAUUACGAGAC | -3.68 ± 0.18 | -2.86 ± 0.21
24 | AUUCAGCAAUAUUACGUCAG | -2.51 ± 0.15 | -1.67 ± 0.22
25 | CUGUAGCAAUAUUACGUCUU | -4.7 ± 0.26 | -2.67 ± 0.3
26 | UGUAAGCAAUAUUACGCCAC | -3.43 ± 0.33 | -2.65 ± 0.41
27 | ACCUAGCAAUAUUACGCUUU | -1.26 ± 0.055 | -0.293 ± 0.081
28 | CAGCAGCAAUAUUACGAACG | -0.451 ± 0.073 | 0.304 ± 0.11
29 | GUAAAGCAAUAUUACGAGCG | -0.0732 ± 0.09 | 0.212 ± 0.12
30 | UGUAAGCAAUAUUACGUAAG | -1.86 ± 0.15 | -1.84 ± 0.11
31 | GCGAAGCAAUAUUACGCCUU |  | -1.5 ± 0.26
32 | AUUUAGCAAUAUUACGCAGC | -2.71 ± 0.35 | -1.68 ± 0.43
33 | CAUCAGCAAUAUUACGGCAG | -0.68 ± 0.076 | 0.196 ± 0.09
34 | CGAUAGCAAUAUUACGGCGC | -1.21 ± 0.15 | -0.875 ± 0.26
35 | CCUUAGCAAUAUUACGCCCA | -1.96 ± 0.34 | 
36 | CCAAAGCAAUAUUACGUGCA | -2.81 ± 0.18 | -2.9 ± 0.23
37 | GCUGAGCAAUAUUACGGAAA | -2.86 ± 0.25 | -2.63 ± 0.32
38 | GACAAGCAAUAUUACGGGGU | -2.96 ± 0.12 | -3.16 ± 0.15
39 | GCUUAGCAAUAUUACGGACA | -0.409 ± 0.13 | -1.15 ± 0.13
